The source of these data is article PMC6560085.

Data set [1] deals with T1, GST-TARDBP (TDP-43) (human, UniProt Q13148 1-414). Description: EMSA. The note with it: protein: recombinant; tags: N-terminal GST (pGEX-4T-1); label: 3' biotin; single strand.
For data set [2], the target named is T1, GST-TARDBP (TDP-43). Description: EMSA; dose dependent; supershifted by anti-TARDBP (Fig. 6d). The following applies: protein: recombinant; tags: N-terminal GST (pGEX-4T-1); label: 3' biotin; single strand.
Data set [3] has as its target T1, GST-TARDBP (TDP-43). Description: EMSA; 2 ug protein. The note with it: protein: recombinant; tags: N-terminal GST (pGEX-4T-1); label: 3' biotin; single strand.
Data set [4] addresses T1, GST-TARDBP (TDP-43). Description: competition; 0-200 fold unlabeled competitor. The note with it: protein: recombinant; tags: N-terminal GST (pGEX-4T-1); single strand.
Data set [5] has as its target T1, GST-TARDBP (TDP-43). The experiment in a line: EMSA; 2 ug protein; binding unaffected. The note with it: protein: recombinant; tags: N-terminal GST (pGEX-4T-1); label: 3' biotin; single strand.

T1 sequence (Q13148 whole entry): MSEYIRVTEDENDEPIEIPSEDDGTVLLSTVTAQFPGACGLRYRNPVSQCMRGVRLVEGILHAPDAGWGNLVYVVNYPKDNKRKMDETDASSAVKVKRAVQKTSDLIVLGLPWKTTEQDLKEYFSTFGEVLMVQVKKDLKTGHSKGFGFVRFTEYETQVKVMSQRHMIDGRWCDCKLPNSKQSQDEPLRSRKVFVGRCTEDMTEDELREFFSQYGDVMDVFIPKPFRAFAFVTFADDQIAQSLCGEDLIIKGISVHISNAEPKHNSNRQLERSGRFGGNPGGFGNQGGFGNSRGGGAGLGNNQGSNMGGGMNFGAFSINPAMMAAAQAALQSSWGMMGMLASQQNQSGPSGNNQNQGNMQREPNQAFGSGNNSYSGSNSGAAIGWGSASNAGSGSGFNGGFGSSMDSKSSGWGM

As to CAGAGGTGAAAAAGTTGCATGGTG (ssDNA) [fragment s3], the binding result with GST-TARDBP (TDP-43) [1] was “no binding”.
Turning to AAAGTTGCATGGTGCTGGTGAACA (ssDNA) [fragment s4], the binding result with GST-TARDBP (TDP-43) [1] is recorded as “no binding”.
Take ATGAGATGATTAGGCAGAGGTGAAAAAGTTGCATGGTGCTGGTGAA (ssDNA) [AS probe 1 (WT, nt1804-1849)]: the binding result in the data set with GST-TARDBP (TDP-43) [2] was “binds”.
As to ATCAGACGACTAGGCAGAGGTGAAAAAGTTGCATGGTGCTGGTGAA (ssDNA) [AS Mutant 1], the binding result in the data set with GST-TARDBP (TDP-43) [3] was “no binding”.
Turning to ATGAGATGATTAGGCAGAGGTGAAAAAGCTACATAGTACTGGTGAA (ssDNA) [AS Mutant 4], the binding result with GST-TARDBP (TDP-43) [3] was “no binding”.
On to ATGAGATGATTAGGCAGAGGTGAAAAAGTTGCATAGTACTCGTGAA (ssDNA) [AS Mutant 5], for which the binding result with GST-TARDBP (TDP-43) [3] was “no binding”.
As to ATGAGATGATTAGGCAGAGGTGAAAAAGTTGCATGGTGCTGGTGAA (ssDNA) [AS probe 1 unlabeled competitor], the binding result with GST-TARDBP (TDP-43) [4] is “binds”.
Regarding ATGAGATGATTAGGCAGAGGTGCTAGCGTTGCATGGTGCTGGTGAA (ssDNA) [AS Mutant 3 (central A5 repeat mutated)], in the data set with GST-TARDBP (TDP-43) [5], the binding result is “binds”.
For ATGAGATGATTAAGCATAGGCGAAAAAGTTGCATGGTGCTGGTGAA (ssDNA) [AS Mutant 2], the binding result with GST-TARDBP (TDP-43) [3] is reported as “no binding”.
Regarding GGTGAAAAAGTTGCATGGTGCTGGTGAA (ssDNA) [fragment s2], the binding result with GST-TARDBP (TDP-43) [1] was “no binding”.
For ATGAACATGAGATGATTAGGCAGAGGTG (ssDNA) [fragment s1], in the data set with GST-TARDBP (TDP-43) [1], the binding result is “no binding”.
In the case of CTGGTGAACAGACCAATTTATGCCTACAGCCTCCTAGTACAAAGAC (ssDNA) [AS probe 2 (adjacent)], the binding result with GST-TARDBP (TDP-43) [3] is recorded as “no binding”.
